Here are results for one molecule from article PMC9889962 (Antibody Therapeutics, 2023).

Assay [1] deals with SARS-CoV-2 Omicron B.1.1.529 RBD only (SARS-CoV-2, UniProt P0DTC2). Description: SPR. Particulars: both partners purified.
Assay [2] deals with SARS-CoV-2 Alpha variant B.1.1.7, S1 subunit (SARS-CoV-2). Put plainly: SPR. The conditions noted are these: both partners purified.

B1: LiVE-Longer YTE chimera (ACE-2 LVE/STR-YTE fusion protein) (Fc fusion)
chain: QSTIEEQAKLFLDKFNVEAEDLFYQSSLASWNYNTNITEENVQNMNNAGDKWSAFLKEQSTLAQMYPLQEIQELTVKLQLQALQQNGSSVLSEDKSKRLNTILNTMSTIYSTGKVCNPDNPQECLLLEPGLNEIMANSLDYNERLWAWESWRSEVGKQLRPLYEEYVVLKNEMARANHYEDYGDYWRGDYEVNGVDGYDYSRGQLIEDVEHTFEEIKPLYEHLHAYVRAKLMNAYPSYISPIGCLPAHLLGDMWGRFWTNLYSLTVPFGQKPNIDVTDAMVDQAWDAQRIFKEAEKFFVSVGLPNMTQGFWENSMLTDPGNVQKAVCHPTAWDLGKGDFRILMCTKVTMDDFLTAHHEMGHIQYDMAYAAQPFLLRNGANEGFHEAVGEIMSLSAATPKHLKSIGLLSPDFQEDNETEINFLLKQALTIVGTLPFTYMLEKWRWMVFKGEIPKDQWMKKWWEMKREIVGVVEPVPHDETYCDPASLFHVSNDYSFIRYYTRTLYQFQFQEALCQAAKHEGPLHKCDISNSTEAGQKLFNMLRLGKSEPWTLALENVVGAKNMNVRPLLNYFEPLFTWLKDQNKNSFVGWSTDWSPYADQSIKVRISLKSALGDKAYEWNDNEMYLFRSSVAYAMRQYFLKVKNQMILFGEEDVRVANLKPRISFNFFVTAPKNVSDIIPRTEVEKAIRMSRSRINDAFRLNDNSLEFLGIQPTLGPPNQPPVS
In the case of B1, the Kd in assay [1] was 0.402 nM; in assay [2], 0.093 nM.

The Kd is the free concentration of one partner at which half of the binding sites on the other are occupied at equilibrium, for simple one-to-one binding. A higher Kd goes with weaker binding.
